The results in this text go back to the DeepSol protein solubility set.

This data set is described as follows: soluble on expression in E. coli; label from the status in PepcDB or PDB records.
For the sequence “MWQCHLSAQDYRYYPVDGYSLLKRFPLHPLTGPRCPVQTVGQWLESIGLPQYENHLMANGFDNVQFMGSNVMEDQDLLEIGILNSGHRQRILQAIQLLPKMRPIGHDGYHPTSVAEWLDSIELGDYTKAFLINGYTSMDLLKKIWEVELINVLKINLIGHRKRILASLGDRLHDDPPQKPPRSITLRTGDWGEPSITLRPPNEATASTPVQYWQHHPEKLIFQSCDYKAFYLGSMLIKELRGTESTQDACAKMRANCQKSTEQMKKVPTIILSVSYKGVKFIDATNKNIIAEHEIRNISCAAQDPEDLSTFAYITKDLKSNHHYCHVFTAFDVNLAYEIILTLGQAFEVAYQLALQARKGGHSSTLPESFENKPSKPIPKPRVSIRKSVDLLHASHTGQEPSERHTEEALRKF”, the “soluble on expression in E. coli” value is reported as “soluble”. As for “VQSMSDESEKNSASPDAMRVGTRVLVRRQPEAATGVIVEDYAELTDTAGRGHDWAPVHRWAVALDDGRLVFADTEDLTVDIGTVDSE”, the entry is “not soluble”; as for “MLAGHLFAGVGEDVRLFKGITMTYGHNIELGDNAVVHDGVHLDDRGELVVGARASVSNGAHLYTHDHDVVDQTDVTNYRTEIGADARVTQGALVRAGVRVGENALVGSRSVVQGDVPAHHIAVGSPAESVRVKPGWLEHHHHHH”, “not soluble”. Then “MGELTDALLGKGALKTRFGSLLGQGDWGGVRVSQVEVRWVIFCLLHWLHVNLPVTEYLALDVLFPLAIVQKHSIL”, with “not soluble”. For the sequence “MATQARLPLPVGSTTSVSVVIPAKNVAAYVGETLASALAQGEVTEVIVVDDGSTDNTIAIVRAIRDPRLRLMTNDSAGVSAARNLGARHASGEWLLFLDADDRLRPGAVAALLAAARGAPRAVLVYGDYNTIDSEGRQVGRRDLLKGRRKPSGDVLTRLAASNFIVNGGIALARAEAFRAIGGFDTSLRYCEDWHCWCRLAAIGEFEFAPKLLLDYRLHTANTMNAAVRTPQDFFPAIARVFDDGLILARLPEGTAARLRQAAEIHLVTYSAMQAVRFGRYRQAFTYLGMVGRRSLKSLPRSALRVALACFGILEHHHHHH”, the “soluble on expression in E. coli” value was “not soluble”.

Regarding “SNAMKEALATGSEAWWRTKTGPEWIREKDGNYRVTFWWRDPQGNETHSPIRRVWVYITGVTDHHQNAQPQTMARIAGTDVWRWSTALSANWRGSYCFIPTERDDVFAAFAPGETPDRNVLREGWRQLLPQAIADPLNSQSWRGGRGHAVSALEMPDAPLQPGWDRPETPYSPPLMMQWHSERLGNSRRVWILTTGDEAPEERPLAILLDGQFWAENMPVWPALASLTHQRLLPGAVYLLIDAIDTQHRSQELPCNADFWLAVQQELLPQVRAVTPFSDDAGRTVVAGQSFGGLSALYAGLNWPTRFGCVLSQSGSFWWPHRITPPEGEVITRLKTGALCARGLRIVLEAGVREPIVFQANQALYAQLNTSQQSIFWRQVDGGHDALCWRGGLTQGLMLLWQPLIDTL”, the “soluble on expression in E. coli” value was “soluble”. For the sequence “MGSDKIHHHHHHMDLMSFKEREISKKDCVELFEDTENFFDILKLADSIRKDIVGDTVTFVKNTNIETTNVCTMGCKFCAFSVSKNSPEAFKLDADEIAKKAVIAKKSGLTEVTIHGGIHPDVDTHFQVETINKVNSATSKLGGIYTHAYSPQEILNGAENAGLSIKEALKMLNEAGLRTIPGTAAEILDDEVRSDICPLKMSTKKWIDIMKTAHKTGIKTTSTIIYGHVEEYKHIVDHLSILKELQEETGGITEFIPMSFLHENTPLYKSGRVTDGASGLYELKLYAIARILFKESIKNIQAPRVKIGTKLSQLILKSGANDLGGTLVEDKVSKAAGSIYEDASVDLMKNAITSIGRIPKERTTLYEIIE”, the “soluble on expression in E. coli” value is “not soluble”. For “MSKRNTQQRRHNIIADLNAQGEVSVDSLAKQFDTSEVTIRKDLAALETSGLLLRRYGGAVALPSEITEAKVDQLSQQKLHIAKKAAMLIRDHNRIIIDSGQTTSALVSELANKKGLVVMTNALSIANEIHALENEPTLLMTGGTWDATSEAFQGQVAEQVLRSYDFDQLFIGADGIDIKRGTTTFNELIGLSRVMAEVAREVIVMVESAKITKKIPNLELNWQQIHTVITDDGLSEEMRIALTEQGVKLIIAKG”, the “soluble on expression in E. coli” value is “not soluble”.

On to “MGSDKIHHHHHHMAIRAKTNNLIQIRPLTGRRLANSEHNRQEMKNGATVLTSKPQRLVFELTNACNLNCLMCGRNSATFELTRFNSEWFKKFEPIMSDIEEVTLMGWGEPTIHPQFKEMLQYLHERGIRKYFCTNGMRLDVLKDAIFDYEVDVFAVSMDGADAKTNEFLRRGLNYQKVIEGLKAITNEKALRGLNFPHINFVMTMMKSNIRQLPDMVDLAAELGLNEVKGVFLTAFSENLLEETLFDDMDLVRYCFGQAEERAAKLGILLKLPHQRGEDPAGDAAHKPCFTAWRDFFLGSDGYVRACMSSPEKLFHIDQYPDFESMWNSREYQEWRAQVNVPGKMCPSCGRCYQSSFANWNKEHAFIQIDTEFSPKWEK”, for which the “soluble on expression in E. coli” value is given as “not soluble”. As for “MAHHHHHHMELLNQENDGFLEDMSDSINKQIKELENVPSKDIIRNIWFKVHCNERNKFHSLIYSIRKIHDKYFSDTNKNEELGKKVWNKCCAIITEELLKLDSIQNSQFHNLMQQETVTLQEFEDFVKFSVNGYKNTKKETKKICIKKLKKALNQRL”, the entry is “soluble”. Take “MSYDVIVRNGLWFDGTGRPPQVRTLGIRDGVVATVSAKPLDETGCPEVIDAGGKWVVPGFIDVHTHYDAEVLLDPGLRESVRHGVTTVLLGMCSLSTVYSDAEDAADLFSRVEAVPRQFVLGALESRKTWSNPAEYVAAIDALPLGPNIASLLGHSDLRASVLGLDRATTRGVVPTDDELETMADRLDAALDAGMLGMSGMDAAIDKLDGDRFRSRALPSTFATWRERRRLIKVLRKRGRILQSAPNVAKAQEALNFFLESSSLFGRRRGVRMSLLVSADAKSSPGAARVIGMGTRLLNKTLDAKVRFQHLPVPFELYSDGIDLPVFEEFGAGTAALHLRDQLERNKLLADPEYRRRFRRSFDRRKLGPTLWHRDFHDATIVECPDESLIGKTFGRIADERGIHPLDAFLDVLVDNGEKNVRWTTIVANHRPKVLDQLANDPAVHMGFSDAGAHLRNMAFYNYPLRLLKRVRDAQLSGRPFLTTERAVYRLTAEVADWFGVDAGTLREGDRADFVVIDPNCLNSDVDAYHEETVPFYGGLSRMVNRNDDAVVATAVNGTVVFGKGEFRDGYGDTVKSGRYLRAGADSRLKTAVLEHHHHHH”: the “soluble on expression in E. coli” value is “not soluble”.

Regarding “MIEFTALDDLSLLRESVSLECKLAQGRDGKGALPDDFWPTYSAMANTDGGIVILGVRERKGQFEVAGIENPDKLRTELFNHLNNRQKVSVNLLRDEDVRAWPVEGKTLLVVEIPRARRQQRPVYLRGNPLGGHTYRRLHEGDRPLPDEDVKRMLAEQVEDSRDERILPGYGLDDLHLESLRAYRQLFANRDPSHPWNALADQAFLRQIGGWRQHRETGEAGLTLAGLLMFGQWSSITEAVPLCFLDYQERPADYATTVQWLDRIVPDGTWSGNVFDFYRRVVGKLTADIKVPFVLKGDIRQDDTPTHKALREALVNTLVHADYTGRISVLVVKEPAGFVLRNPGGLRVPAQQALQGGMSDCRNRTMQQMFLMIGLGERAGSGMSRIVHGWRDLGHELHLRESYEPHEHSVLEMFWAKGRGATLASESSEESSEESSEETGKKILHLLREEPSLTASALARRLQLTPRAIEKQLEHHHHHH”, the “soluble on expression in E. coli” value is recorded as “not soluble”.

As to “MPSGAEFTRDERQLNQHENPNDAMSDDNSHSSDTVNSKKGFFSLLLSQLFHGEPKNRDELLALIRDSGQNDLIDEDTRDMLEGVMDIADQRVRDIMIPRSQMITLKRNQTLDECLDVIIESAHSRFPVISEDKDHIEGILMAKDLLPFMRSDAEAFSMEKVLRPAVVVPESKRVDRMLKEFRSQRYHMAIVIDEFGGVSGLVTIEDILELIVGEIEDEYDEEEDIDFRQLSRHTWTVRALASIEDFNDAFDTHFSDEEVDTIGGLVMQAFGHLPARGESIDIDGYQFKVAMADSRRIIQVHVKLPDDAPQPKLEE”, the “soluble on expression in E. coli” value is “not soluble”. Then “MFADLDYDIEEDKLGIPTVPGKVTLQKDAQNLIGISIGGGAQYCPCLYIVQVFDNTPAALDGTVAAGDEITGVNGRSIKGKTKVEVAKMIQEVKGEVTIHYNKLQADPKQLEVLFNGPGIESVKI”, with “soluble”. Consider “MAHHHHHHMVENEVYNRDMRIVRSRERLDGRPTLRSFFNKDGLLLKTYGWIVRNAVGLIVLIHGLNSHTRFSFLRHNVHVFNNRAILMDADNYYIYKNSWIEHFNKNGYSVFGIDLQSHGESEGWENLSLNVKEFDDLVYDVLEYIQKVQDDNARYMNYSSSSYSSSSSRSNSSSNSSSNSGSNSNSNSNSNSRGGESPRNDNSANRMIAPLPVYLIGQSMGGNVALRALQIVGKYRGLNRRLNIRGCVSLSGMIAVEALGLPSSYIYKSFFMPLSRFLSDFLPTLRLLCEMPYKRFQYIRDIGRFDTMRYRRGITCRFAYELLKAMDNLDHDMRFMPRDIPVLFIHSSKDKLCYPGGVVSFYNRLNIRNKELHMLNYMEHMLTMEPGNERVLSKIMNWLYNMSRPQRITA”, for which the “soluble on expression in E. coli” value is recorded as “not soluble”. For the sequence “MSPMNRQRKNKSNVLNEKDERPGCIIKEKSSVRSMAKTQPTSGRTISLSEINKPIALSKKNTEIKAAVEIQNRLTKKMAKNSERRKKMAHGPEMTAQNRTQERIDFVEFLDRHYQVMQAGVSTVKVHKMHYTKEEFENVIYEAQTIFSSEKALVDIDPPCVVVGNLHGQFNDLINMFILLGRPPETVYVFTECVTSIPKCGEEIWALFQRCFNNLPISALIATKILCMHGGLSPALTCLDELRNHPKPIRNPFRGIVNDMLWADPDPSVFEWKTSSRGSGFTFGTNVIDDVCKRLGVELIIRAHQMCFDGYWVLSGRKLITIFSAPMYCNFYKNTGCVLKVDETLGIQTVAFVPESENIEKIIEEMNRVWDISIDCIE”, the “soluble on expression in E. coli” value is “not soluble”. As for “MGSDKIHHHHHHVIIESRIEKGKPVVGMETTVFVHGLPRKEAIELFRRAKEISREKGFQLAVIGILKGKIVAGMSEEELEAMMREGADKVGTREIPIVVAEGKNAATTVSATIFLSRRIGIEVVVTGGTGGVHPGRVDVSQDLTEMSSSRAVLVSSGIKSILDVEATFEMLETLEIPLVGFRTNEFPLFFSRKSGRRVPRIENVEEVLKIYESMKEMELEKTLMVLNPVPEEYEIPHDEIERLLEKIELEVEGKEVTPFLLKKLVEMTNGRTLKANLALLEENVKLAGEIAVKLKRS”, the entry is “soluble”; as for “EDYEKVPLPNSVFVNTTESCEVERLFKATSPRGEPQDGLYCIRNSSTKSGKVLVVWDETSNKVRNYRIFEKDSKFYLEGEVLFVSVGSMVEHYHTHVLPSHQSLLLRHPYGYT”, “soluble”; as for “MSLAATGDAGWRIRLREAAVVAGPTVLLGEVADPVGEMPAAVWRDLAARPLWAAPADAGRPMIVNKVRLGEALRAALGATADSCLLPPSMALQRGGAVLREGDLRDIVVRTMTPQLASMGGEASFSDFRLPPFAFLEHPQQKVILEPLQPAPGRLSLRFAVLEMDGAVVRRFTGTAFLDVWLTVPCAAQPLNRGDRLEVEKVTWMRKNIAHLRAAPWDGRGGPWQLQRPVGAGQVVYQDDVAPNPAVTRGGIVTLVYESPALRLAVQGEALADGMPGETIQVRNLQSRKQVYATVRDGSTVVVREGHHHHHH”, “soluble”. As for “MYDAIVVGGGFSGLKAARDLTNAGKKVLLLEGGERLGGRAYSRESRNVPGLRVEIGGAYLHRKHHPRLAAELDRYGIPTAAASEFTSFRHRLGPTAVDQAFPIPGSEAVAVEAATYTLLRDAHRIDLEKGLENQDLEDLDIPLNEYVDKLDLPPVSRQFLLAWAWNMLGQPADQASALWMLQLVAAHHYSILGVVLSLDEVFSNGSADLVDAMSQEIPEIRLQTVVTGIDQSGDVVNVTVKDGHAFQAHSVIVATPMNTWRRIVFTPALPERRRSVIEEGHGGQGLKILIHVRGAEAGIECVGDGIFPTLYDYCEVSESERLLVAFTDSGSFDPTDIGAVKDAVLYYLPEVEVLGIDYHDWIADPLFEGPWVAPRVGQFSRVHKELGEPAGRIHFVGSDVSLEFPGYIEGALETAECAVNAILHSHHHHHH”, the entry is “soluble”.
